Test [1] has as its target T1, mouse complement component 5 (C5) (Mus musculus, strain , UniProt P06684).
T1 construct: complement C5 beta chain (80 000 MW), mouse, cut from the C5 precursor; complement C5 alpha chain (115 000 MW), mouse, cut from the C5 precursor; also called mouse C5; intact C5; source: purified in-house
Briefly: SPR; Biacore T200; BB5.1 immobilised on CM5 chip by amine coupling (~200 RU); mouse C5 flowed at 52-4 nM in HBS-EP (10 mM HEPES, 150 mM NaCl, 0.05% surfactant P20), 30 µl/min, 25°; Langmuir 1:1 binding model. Particulars: both partners purified. Background: Surface plasmon resonance follows binding to a sensor surface in real time, without labels.

For test [2], the target named is T2, human complement component 5 (C5) (Homo sapiens, UniProt P01031).
T2 construct: complement C5 beta chain, human, cut from the C5 precursor; complement C5 alpha chain, human, cut from the C5 precursor; also called human C5; source: purified in-house
T2 sequence (P01031 whole entry, looked up): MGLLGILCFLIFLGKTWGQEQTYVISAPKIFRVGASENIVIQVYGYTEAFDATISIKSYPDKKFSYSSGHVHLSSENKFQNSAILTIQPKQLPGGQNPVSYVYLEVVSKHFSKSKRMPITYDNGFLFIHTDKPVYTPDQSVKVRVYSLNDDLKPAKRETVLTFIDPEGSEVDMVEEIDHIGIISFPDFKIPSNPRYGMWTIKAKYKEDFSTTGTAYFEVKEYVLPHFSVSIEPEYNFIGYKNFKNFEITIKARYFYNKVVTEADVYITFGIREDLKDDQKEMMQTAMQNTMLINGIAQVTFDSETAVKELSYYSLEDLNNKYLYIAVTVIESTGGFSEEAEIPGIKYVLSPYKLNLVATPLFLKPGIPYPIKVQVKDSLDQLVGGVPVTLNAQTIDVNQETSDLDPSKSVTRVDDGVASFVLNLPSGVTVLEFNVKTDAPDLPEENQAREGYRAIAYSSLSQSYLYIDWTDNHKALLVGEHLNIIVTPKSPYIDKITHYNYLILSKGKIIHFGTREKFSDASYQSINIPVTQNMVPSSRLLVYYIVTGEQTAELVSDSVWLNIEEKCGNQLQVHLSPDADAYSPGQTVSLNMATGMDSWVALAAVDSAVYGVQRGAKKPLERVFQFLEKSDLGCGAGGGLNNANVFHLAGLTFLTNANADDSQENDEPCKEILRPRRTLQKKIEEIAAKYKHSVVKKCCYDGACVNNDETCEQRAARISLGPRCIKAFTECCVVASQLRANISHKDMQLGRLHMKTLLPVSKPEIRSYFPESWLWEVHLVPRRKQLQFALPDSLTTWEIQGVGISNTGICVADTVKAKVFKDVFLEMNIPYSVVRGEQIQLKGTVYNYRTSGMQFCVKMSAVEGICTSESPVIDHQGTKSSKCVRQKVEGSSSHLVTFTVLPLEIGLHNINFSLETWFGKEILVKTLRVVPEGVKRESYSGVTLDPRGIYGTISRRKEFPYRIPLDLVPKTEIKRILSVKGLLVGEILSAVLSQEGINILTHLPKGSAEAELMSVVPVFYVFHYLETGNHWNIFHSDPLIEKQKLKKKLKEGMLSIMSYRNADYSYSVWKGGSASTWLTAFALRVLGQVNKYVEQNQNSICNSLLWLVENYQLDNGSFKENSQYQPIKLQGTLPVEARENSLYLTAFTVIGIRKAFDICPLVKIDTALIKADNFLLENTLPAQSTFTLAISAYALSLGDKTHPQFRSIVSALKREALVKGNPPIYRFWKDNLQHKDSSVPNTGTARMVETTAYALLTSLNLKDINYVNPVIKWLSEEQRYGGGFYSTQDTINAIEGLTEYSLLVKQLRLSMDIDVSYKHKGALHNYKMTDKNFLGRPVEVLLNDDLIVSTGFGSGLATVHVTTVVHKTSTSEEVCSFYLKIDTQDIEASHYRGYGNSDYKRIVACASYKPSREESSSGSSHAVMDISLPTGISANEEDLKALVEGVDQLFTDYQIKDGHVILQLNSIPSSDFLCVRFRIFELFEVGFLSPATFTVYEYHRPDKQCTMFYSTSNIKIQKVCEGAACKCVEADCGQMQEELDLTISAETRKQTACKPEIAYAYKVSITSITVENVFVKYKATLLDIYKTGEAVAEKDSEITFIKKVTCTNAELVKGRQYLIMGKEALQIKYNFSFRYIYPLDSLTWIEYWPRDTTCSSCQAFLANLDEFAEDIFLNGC
Briefly: ELISA; direct ELISA; plates coated with mouse or human C5 (0.5 µg/ml, bicarbonate buffer pH 9.6); BB5.1 intact mAb 5-0 µg/ml or Fab 20-0 µg/ml in 0.2% BSA-PBS, 1 hr at 37°; HRP-labelled secondary antibody. The following applies: both partners purified. A general note: In an ELISA, binding on a coated surface is turned into a signal by an enzyme label.

B1: BB5.1 anti-C5 monoclonal antibody (intact mAb) (antibody, V domains shown)
VH: QVQLQQPGAELVRPGTSVKLSCKASGYTFTSSWMHWVKQRPGQGLEWIGVIDPSDSYTNYNQKFKGKATLTVDTSSSTAYMQLSSLTSEDSAVYYCARGGGSSYNRYFDVWGTGTTVTVSS
VL: NIMMTQSPSSLAVSAGEKVTMSCKSSQSVLYSSNQKNYLAWYQQKPGQSPKLLIYWASTRESGVPDRFTGSGSGTDFTLTISSVQAEDLAVYYCHQYLSSRTFGGGTKLEIK
notes: full variable heavy domain; full variable light domain; raised in C5-deficient mice; also called BB5.1 mAb; full-length BB5.1; source: BB5.1 hybridoma (re-cloned), purified on HiTrap Protein G sepharose
As usually defined, the Kd is the free concentration of one partner at which half of the binding sites on the other are occupied at equilibrium, for simple one-to-one binding. Low values mean a tighter complex, high ones a looser complex. By koff is commonly meant a measure of how fast the partners let go of each other. Read a low koff as a long-lived complex. Regarding B1, in test [1], binding was characterised by a dissociation constant (Kd) of 8.1 nM and the koff was 0.0013 s⁻¹. In addition, in test [2], the binding result was “no binding (tested: 5 µg/ml)”.

B2: BB5.1 Fab fragments (Fab, V domains shown)
VH: B1 VH
VL: B1 VL
notes: as the VH of m1; as the VL of m1; Fab of a mouse IgG1, kappa antibody; also called BB5.1-derived Fab fragment; source: immobilized ficin digestion of purified BB5.1 mAb; Fc-containing proteins removed on Protein A or G column
Consider B2, for which the binding result in test [2] is recorded as “no binding (tested: 20 µg/ml)”.

Values taken from publication PMC7496778, “Characterizing the original anti‐C5 function‐blocking antibody, BB5.1, for species specificity, mode of action and interactions with C5” (Immunology, 2020).
